In patent publication US20030109000A1:

Molecular target: cell-surface PDGF receptors (on rat stellate cells) (rat)
Assay: cell-based or functional assay

luciferase reporter (SRE/STAT) RLU in rat stellate cell lysate at 0.3 ng/ml: 160 RLU
luciferase reporter (SRE/STAT) RLU in rat stellate cell lysate at 1 ng/ml: 278 RLU
luciferase reporter (SRE/STAT) RLU in rat stellate cell lysate at 3 ng/ml: 400 RLU
luciferase reporter (SRE/STAT) RLU in rat stellate cell lysate at 10 ng/ml: 542 RLU
luciferase reporter (SRE/STAT) RLU in rat stellate cell lysate at 30 ng/ml: 672 RLU
luciferase reporter (SRE/STAT) RLU in rat stellate cell lysate at 100 ng/ml: 826 RLU
luciferase reporter (SRE/STAT) RLU in rat stellate cell lysate at 300 ng/ml: 883 RLU
Substance: PDGF-D GFD dimer (from UniProt Q5RA73 250-370) (ligand)
